The numbers were not newly measured in patent publication US20260159592A1, “COMPOSITIONS AND METHODS FOR TARGETING AND KILLING ALPHA-V BETA-3 -POSITIVE CANCER STEM CELLS (CSCS) AND TREATING DRUG RESISTANT AND METASTATIC CANCERS” (The Regents of the University of California, priority 2019, published 2026), which cites them from elsewhere.

In data set [1] the target is T1, αvβ3 (Homo sapiens, UniProt P05106+P06756). As to conditions: Choi et al. (1994); Jones et al. (1996).
The target of data set [2] is T1, αvβ3. As to conditions: Brooks et al. Cell 79:1157-1164 (1994).
The target in data set [3] is T1, αvβ3. Conditions: Clark et al., Am. J. Pathology 148:1407-1421 (1996).
The next data set relates to M21 cells. Conditions: ligands such as vitronectin, fibrinogen and von Willebrand factor; Cheresh and Spiro.

T1 sequence (P06756 31-889 limits assumed): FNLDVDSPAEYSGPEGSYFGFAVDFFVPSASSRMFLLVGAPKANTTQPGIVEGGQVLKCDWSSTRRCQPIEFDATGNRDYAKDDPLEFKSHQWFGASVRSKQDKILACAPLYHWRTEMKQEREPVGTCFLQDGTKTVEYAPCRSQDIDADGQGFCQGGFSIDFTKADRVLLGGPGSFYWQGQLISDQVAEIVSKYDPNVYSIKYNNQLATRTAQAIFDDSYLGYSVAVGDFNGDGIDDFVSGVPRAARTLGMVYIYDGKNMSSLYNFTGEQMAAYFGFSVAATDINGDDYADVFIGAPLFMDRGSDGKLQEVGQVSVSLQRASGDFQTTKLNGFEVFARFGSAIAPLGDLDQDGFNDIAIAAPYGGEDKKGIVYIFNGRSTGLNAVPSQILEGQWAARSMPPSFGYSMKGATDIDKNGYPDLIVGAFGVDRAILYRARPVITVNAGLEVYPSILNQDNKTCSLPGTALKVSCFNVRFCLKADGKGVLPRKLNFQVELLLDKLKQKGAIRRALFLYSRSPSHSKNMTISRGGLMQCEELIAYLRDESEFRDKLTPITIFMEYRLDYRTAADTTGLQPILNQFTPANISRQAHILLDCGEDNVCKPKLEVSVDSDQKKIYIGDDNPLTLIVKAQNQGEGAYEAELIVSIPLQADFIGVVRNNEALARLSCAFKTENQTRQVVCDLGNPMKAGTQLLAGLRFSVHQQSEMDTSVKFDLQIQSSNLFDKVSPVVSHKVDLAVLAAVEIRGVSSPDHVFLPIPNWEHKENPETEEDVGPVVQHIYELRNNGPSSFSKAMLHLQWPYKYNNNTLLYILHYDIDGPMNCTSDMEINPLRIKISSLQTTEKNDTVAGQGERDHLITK
T1 sequence (P06756 891-1048 limits assumed): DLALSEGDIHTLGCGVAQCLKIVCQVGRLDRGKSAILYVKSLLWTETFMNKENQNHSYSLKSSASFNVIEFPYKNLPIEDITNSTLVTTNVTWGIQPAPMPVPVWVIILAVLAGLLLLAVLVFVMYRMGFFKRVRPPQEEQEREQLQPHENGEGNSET
T1 sequence (P05106 27-788): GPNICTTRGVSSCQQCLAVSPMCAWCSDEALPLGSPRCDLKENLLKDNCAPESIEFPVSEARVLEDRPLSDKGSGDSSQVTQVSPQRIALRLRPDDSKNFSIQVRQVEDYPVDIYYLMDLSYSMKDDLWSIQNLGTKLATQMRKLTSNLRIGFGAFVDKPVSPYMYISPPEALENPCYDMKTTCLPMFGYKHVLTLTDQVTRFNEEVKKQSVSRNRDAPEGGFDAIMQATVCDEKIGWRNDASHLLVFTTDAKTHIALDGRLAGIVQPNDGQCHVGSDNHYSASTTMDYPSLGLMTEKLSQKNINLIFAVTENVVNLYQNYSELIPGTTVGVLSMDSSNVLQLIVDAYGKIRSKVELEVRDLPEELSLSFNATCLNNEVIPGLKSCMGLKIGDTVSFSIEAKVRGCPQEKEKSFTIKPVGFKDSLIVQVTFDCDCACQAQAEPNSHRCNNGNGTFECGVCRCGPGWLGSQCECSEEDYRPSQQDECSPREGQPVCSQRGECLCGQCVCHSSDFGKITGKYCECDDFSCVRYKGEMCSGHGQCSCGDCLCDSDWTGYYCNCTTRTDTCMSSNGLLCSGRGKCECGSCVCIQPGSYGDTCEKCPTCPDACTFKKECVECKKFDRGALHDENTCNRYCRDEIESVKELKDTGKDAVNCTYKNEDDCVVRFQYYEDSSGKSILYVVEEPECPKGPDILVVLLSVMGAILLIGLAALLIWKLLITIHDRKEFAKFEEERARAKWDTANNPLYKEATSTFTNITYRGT

B1: LM609: murine monoclonal antibody specific for the integrin αvβ3 (antibody, V domains shown)
VH: EVQLVESGGGLVKPGRSLRLSCAASGFAFSSYDMSWVRQIPEKRLEWVAKVSSGGGSTYYLDTVQGRFTISRDNAKNTLYLQMSSLNSEDTAMYYCARHNYGSFAYWGQGTLVTVSA
VL: DIVLTQSPATLSVTPGDSVSLSCQASQSISNHLHWYQQKSHESPRLLIKYRSQSISGIPSRFSGSGSGTDFALSINSVETEDFGMYFCQQSGSWPHTFGGGTKLEIK
B1: the “smooth muscle cell migration such as that occurring during restenosis” value in the data set with αvβ3 [1] is given as “inhibitor”. In addition, the tumor induced angiogenesis entry with αvβ3 [2] is listed as “inhibitor”. In the data set with αvβ3 [3], the “granulation tissue development in cutaneous wound” value was “inhibitor”. In the data set on M21 cells, the “attachment of M21 cells to αvβ ligands” value is given as “inhibits”.
